Results reported in paper PMC2680711 (Nature structural & molecular biology, 2008).

T1: Rtt109 (recombinant, purified) (yeast, UniProt Q07794 1-436)
T1 sequence (looked up): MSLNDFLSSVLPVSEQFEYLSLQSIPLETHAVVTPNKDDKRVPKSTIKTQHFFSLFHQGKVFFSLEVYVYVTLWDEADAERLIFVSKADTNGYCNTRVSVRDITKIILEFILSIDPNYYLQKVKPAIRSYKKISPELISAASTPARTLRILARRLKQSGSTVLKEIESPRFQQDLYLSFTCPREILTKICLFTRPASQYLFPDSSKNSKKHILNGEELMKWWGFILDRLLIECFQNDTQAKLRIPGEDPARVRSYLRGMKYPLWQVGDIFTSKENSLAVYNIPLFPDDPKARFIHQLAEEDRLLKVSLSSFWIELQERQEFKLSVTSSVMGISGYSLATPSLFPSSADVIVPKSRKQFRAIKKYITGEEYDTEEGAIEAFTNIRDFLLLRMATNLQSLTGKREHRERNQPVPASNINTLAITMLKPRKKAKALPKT


Experiments:
[1] = biological target: recombinant yeast (H3-H4)2 tetramer (yeast, UniProt P61830 1-136; P02309 1-103); test: other fluorescence titration
AUC = biological target: the molecule itself; test: AUC
[2] = biological target: T1, Rtt109 (recombinant, purified); test: AUC

Binder	Kd [1]	stoichiometry N (AUC)	binding result [2]
Alexa-546-labeled Vps75 (natural protein, S. cerevisiae, Alexa-546 label, position not stated) MMSDQENENEHAKAFLGLAKCEEEVDAIEREVELYRLNKMKPVYEKRDAYIDEIAEFWKIVLSQHVSFANYIRASDFKYIDTIDKIKVEWLALESEMYDTRDFSITFHFHGIEGDFKEQQVTKVFQIKKGKDDQEDGILTSEPVPIEWPQSYDSINPDLIKDKRSPEGKKKYRQGMKTIFGWFRWTGLKPGKEFPHGDSLASLFSEEIYPFCVKYYAEAQRDLEDEEGESGLSADGDSEDDDGSLGEVDLPLSDEEPSSKKRKV	27 nM	–	–
Vps75_(1−223) (Vps75 lacking the C-terminal acidic domain) (domain or fragment, S. cerevisiae, UniProt P53853 1-223, looked up) MMSDQENENEHAKAFLGLAKCEEEVDAIEREVELYRLNKMKPVYEKRDAYIDEIAEFWKIVLSQHVSFANYIRASDFKYIDTIDKIKVEWLALESEMYDTRDFSITFHFHGIEGDFKEQQVTKVFQIKKGKDDQEDGILTSEPVPIEWPQSYDSINPDLIKDKRSPEGKKKYRQGMKTIFGWFRWTGLKPGKEFPHGDSLASLFSEEIYPFCVKYYAEAQRDL	–	2	binds
